This note sets out measurements from patent US20220372200.

Data set [1] deals with T1, poly[(KLAAm10-co-DMA10)-b-(DAAm140-co-DMA60)] (NP4).
T1 sequence: KLAKLAKKLAKLAK

In data set [2] the test system is T2, poly[(KLAAm10-co-DMA30)-b-(DAAm140-co-DMA60)] (NP2).
T2 sequence: KLAKLAKKLAKLAK

Another data set relates to T3, poly(KLAAm10-co-DMA10).
T3 sequence: KLAKLAKKLAKLAK

Data set [3] deals with T4, poly[(KLAAm10-co-DMA30)-b-(DAAm70-co-DMA30)] (NP1).
T4 sequence: KLAKLAKKLAKLAK

Data set [4] concerns T5, KLA peptide acrylamide monomer (KLAAm).
T5 sequence: KLAKLAKKLAKLAK

The subject of data set [5] is T6, poly[(KLAAm10-co-DMA10)-b-(DAAm280-co-DMA120)] (NP5).
T6 sequence: KLAKLAKKLAKLAK

Data set [6] relates to T7, poly[(KLAAm10-co-DMA30)-b-(DAAm280-co-DMA120)] (NP3).
T7 sequence: KLAKLAKKLAKLAK

For data set [7], the target named is T8, poly(PepAm21-co-DMA71) (P4).
T8 chain: GPLGLAGG

As to trypsin, the “percent of KLA peptide left uncleaved after 1 h (HPLC)” value in data set [1], in data set [2], in data set [3], in data set [5] and in data set [6] was “more than 70% of KLA peptide survived during the first hour of cleavage” throughout. Further, in the data set on poly(KLAAm10-co-DMA10), the “percent of side-chain peptides cleaved by HPLC” value is reported as “more than 90% of the side-chain peptides were cleaved within 1 h”. Further, the “percent cleavage by HPLC” value in data set [4] was “the KLA peptide underwent fast degradation, reaching 100% cleavage within 1 h”.

B1: thermolysin (protein)
chain: ITGTSTVGVGRGVLGDQKNINTTYSTYYYLQDNTRGNGIFTYDAKYRTTLPGSLWADADNQFFASYDAPAVDAHYYAGVTYDYYKNVHNRLSYDGNNAAIRSSVHYSQGYNNAFWNGSQMVYGDGDGQTFIPLSGGIDVVAHELTHAVTDYTAGLIYQNESGAINEAISDIFGTLVEFYANKNPDWEIGEDVYTPGISGDSLRSMSDPAKYGDPDHYSKRYTGTQDNGGVHINSGIINKAAYLISQGGTHYGVSVVGIGRDKLGKIFYRALTQYLTPTSNFSQLRAAAVQSATDLYGSTSQEVASVKQAFDAVGVK
Regarding B1, the “cleavage of side-chain peptides monitored by HPLC” value in data set [7] was “the polypeptide brushes were rapidly cleaved within 1 hour under the investigated conditions”.
